Legend:
[1] = target: trimeric cohesin (SMC1, SMC3-FLAG, SCC1(TEV)-Halo-His14) (human) (UniProt Q14683); experiment: high-speed atomic force microscopy
NIPBL (human) = NIPBL (human) (UniProt Q6KC79); experiment: high-speed atomic force microscopy

| stoichiometry N [1] | stoichiometry N (NIPBL (human)) | Substance |
| --- | --- | --- |
| 1 |  | NIPBL (from UniProt Q6KC79 1-2804) (natural protein) |
|  | 2 | NIPBL, Q6KC79 1-2804 |
